Measured values: article PMC4551922, “Nucleic acid-binding specificity of human FUS protein”
Like-named read-outs stand apart in the source and are kept apart here.

What was measured:
[1] = test system: MS2 coat protein (bacteriophage MS2?); settings: EMSA: 50 mM Tris-HCl pH 7.4, 150 mM KCl, 2 mM MgCl2, 2 mM DTT, 0.1 mg/ml yeast tRNA, 0.1 mg/ml BSA, room temperature, 30 min, trace 32P-RNA
[2] = test system: MS2 coat protein (bacteriophage MS2?); settings: EMSA: 50 mM Tris-HCl pH 7.4, 150 mM KCl, 2 mM MgCl2, 2 mM DTT, 0.1 mg/ml yeast tRNA, 0.1 mg/ml BSA, room temperature, 30 min, trace 32P-RNA; remark: listed apart in the source
[3] = target: T1, MBP-FUS (human, UniProt P35637 1-526); experiment: EMSA; settings: EMSA: 50 mM Tris-HCl pH 7.4, 150 mM KCl, 2 mM MgCl2, 2 mM DTT, 0.1 mg/ml yeast tRNA, 0.1 mg/ml BSA, room temperature, 30 min, trace 32P-RNA
[4] = target: T1, MBP-FUS; experiment: EMSA; EMSA: 50 mM Tris-HCl pH 7.4, 150 mM KCl, 2 mM MgCl2, 2 mM DTT, 0.1 mg/ml yeast tRNA, 0.1 mg/ml BSA, room temperature, 30 min, trace 32P-RNA; settings: protein: recombinant, tags: N-terminal His6-MBP (not cleaved)
[5] = target: T1, MBP-FUS; experiment: competition; cold ssDNA vs labeled prD ssRNA; EMSA: 50 mM Tris-HCl pH 7.4, 150 mM KCl, 2 mM MgCl2, 2 mM DTT, 0.1 mg/ml yeast tRNA, 0.1 mg/ml BSA, room temperature, 30 min, trace 32P-RNA; settings: protein: recombinant; tags: N-terminal His6-MBP (not cleaved); chain copies: 4; label: 32P
[6] = target: MBP-LC-RRM (human, UniProt P35637 1-384); experiment: EMSA; EMSA: 50 mM Tris-HCl pH 7.4, 150 mM KCl, 2 mM MgCl2, 2 mM DTT, 0.1 mg/ml yeast tRNA, 0.1 mg/ml BSA, room temperature, 30 min, trace 32P-RNA; settings: protein: recombinant, tags: N-terminal MBP, label: 32P
[7] = target: MBP-RGG-Znf-RGG (human, UniProt P35637 385-526); experiment: as above; settings: protein: recombinant, tags: N-terminal MBP, label: 32P
[8] = target: T1, MBP-FUS; experiment: EMSA; weaker than full prD; similar to 3'prD; EMSA: 50 mM Tris-HCl pH 7.4, 150 mM KCl, 2 mM MgCl2, 2 mM DTT, 0.1 mg/ml yeast tRNA, 0.1 mg/ml BSA, room temperature, 30 min, trace 32P-RNA; settings: protein: recombinant; tags: N-terminal His6-MBP (not cleaved); label: 32P
[9] = target: T1, MBP-FUS; experiment: EMSA; weaker than full prD; similar to 5'prD; EMSA: 50 mM Tris-HCl pH 7.4, 150 mM KCl, 2 mM MgCl2, 2 mM DTT, 0.1 mg/ml yeast tRNA, 0.1 mg/ml BSA, room temperature, 30 min, trace 32P-RNA; settings: protein: recombinant; tags: N-terminal His6-MBP (not cleaved); label: 32P
[10] = chain copies: 4, label: 32P, blunt

T1 sequence (P35637 whole entry): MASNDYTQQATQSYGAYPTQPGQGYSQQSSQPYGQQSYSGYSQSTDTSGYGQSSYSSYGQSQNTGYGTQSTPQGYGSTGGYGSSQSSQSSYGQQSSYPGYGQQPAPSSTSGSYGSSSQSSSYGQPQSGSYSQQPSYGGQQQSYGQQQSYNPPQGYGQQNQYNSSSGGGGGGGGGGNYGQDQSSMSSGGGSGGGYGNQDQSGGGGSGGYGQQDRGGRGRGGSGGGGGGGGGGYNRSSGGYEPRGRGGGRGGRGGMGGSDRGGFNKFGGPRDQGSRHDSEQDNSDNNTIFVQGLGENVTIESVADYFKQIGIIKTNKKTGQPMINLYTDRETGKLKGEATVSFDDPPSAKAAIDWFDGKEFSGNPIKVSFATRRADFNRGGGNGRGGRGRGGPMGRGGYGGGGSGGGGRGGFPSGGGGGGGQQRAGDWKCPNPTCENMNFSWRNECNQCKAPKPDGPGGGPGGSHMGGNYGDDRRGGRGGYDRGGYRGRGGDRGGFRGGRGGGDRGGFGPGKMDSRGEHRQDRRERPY
Chain of MBP-LC-RRM (P35637 1-384): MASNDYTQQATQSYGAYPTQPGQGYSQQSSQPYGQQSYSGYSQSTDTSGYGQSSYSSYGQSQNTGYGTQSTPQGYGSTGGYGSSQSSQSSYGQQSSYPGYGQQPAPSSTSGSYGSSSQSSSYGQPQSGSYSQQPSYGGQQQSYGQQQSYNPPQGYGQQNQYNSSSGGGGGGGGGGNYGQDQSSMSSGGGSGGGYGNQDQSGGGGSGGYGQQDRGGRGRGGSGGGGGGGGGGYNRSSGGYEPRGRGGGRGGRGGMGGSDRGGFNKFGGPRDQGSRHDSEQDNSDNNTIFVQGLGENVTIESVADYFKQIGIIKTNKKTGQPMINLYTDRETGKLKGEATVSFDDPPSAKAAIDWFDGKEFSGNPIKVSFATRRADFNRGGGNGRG
Chain of MBP-RGG-Znf-RGG (P35637 385-526): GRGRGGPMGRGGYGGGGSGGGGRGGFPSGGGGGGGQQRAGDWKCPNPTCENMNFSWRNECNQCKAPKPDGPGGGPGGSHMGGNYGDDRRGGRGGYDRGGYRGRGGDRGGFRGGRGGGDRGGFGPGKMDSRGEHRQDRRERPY

## MS2 motif 21 nt
[1]
  Kd: 10 nM

## MBP 1-100 MS2
[2]
  Kd: 100 nM

## MBP 1-200
[3]
  Kd: 56 nM

## TERRA
[3]
  Kd: 116 nM

## UUGUAUUUUGAGCUAGUUUCCUCAC (ssRNA) [GGUG neg]
[4]; label: 32P
  Kd: 840 ± 50 nM

## GGGAGACCAAAACUG (ssRNA) [MBP 1-10]
[4]; label: 32P
  binding result: no binding

## CAACUUAGGUGGUUGAUUUGA (ssRNA) [GUGGU]
[4]; label: 32P
  Kd: 980 ± 42 nM

## ATTGAGGAGCAGCAGAGAAGTTGGAGTGAAGGCAGAGAGGGGTTAAGG (ssDNA) [prD ssDNA]
[5]
  binding signal: 10 fold more than ssRNA
[6]
  Kd: 220 ± 32 nM
[4]; chain copies: 4, label: 32P
  Kd: 280 ± 26 nM
[7]
  Kd: 290 ± 29 nM

B1: prD dsDNA (dsDNA)
DNA 1: ATTGAGGAGCAGCAGAGAAGTTGGAGTGAAGGCAGAGAGGGGTTAAGG
DNA 2: CCTTAACCCCTCTCTGCCTTCACTCCAACTTCTCTGCTGCTCCTCAAT
[6]; blunt
  Kd: 1400 ± 170 nM
[4]; [10]
  Kd: 1200 ± 110 nM
[7]; blunt
  Kd: 1000 ± 81 nM

## AUUGAGGAGCAGCAGAGAAGUUGGAGUGAAGGCAGAGAGGGGUUAAGG (ssRNA) [prD RNA]
[6]
  Kd: 60 ± 3 nM
[4]; label: 32P
  Kd: 97 ± 2 nM
[7]
  Kd: 81 ± 2 nM

## AUUGAGGAGCAGCAGAGAAGUUGG (ssRNA) [5'prD]
[8]
  binding result: binds

## CCUUAACCCCUCUCUGCCUUCACUCCAACUUCUCUGCUGCUCCUCAAU (ssRNA) [As-prD RNA]
[6]
  Kd: 280 ± 22 nM
[4]; label: 32P
  Kd: 79 ± 4 nM
[7]
  Kd: 260 ± 32 nM

B2: prD DNA/RNA hybrid (DNA:RNA)
DNA: B1 DNA 1
RNA: CCUUAACCCCUCUCUGCCUUCACUCCAACUUCUCUGCUGCUCCUCAAU
[6]; blunt
  Kd: 1200 ± 250 nM
[4]; [10]
  Kd: 980 ± 100 nM
[7]; blunt
  Kd: 1100 ± 110 nM

B3: prD dsRNA (dsRNA)
RNA 1: AUUGAGGAGCAGCAGAGAAGUUGGAGUGAAGGCAGAGAGGGGUUAAGG
RNA 2: B2 RNA
[6]; blunt
  Kd: 2100 ± 60 nM
[4]; [10]
  Kd: 350 ± 38 nM
[7]; blunt
  Kd: 1100 ± 80 nM

## AGGGTTAGGGTTAGGGTTAGGG (structured_DNA) [Htelo DNA]
[4]; label: 32P
  Kd: 730 ± 38 nM

## UUGUAUUUUGAGCUAGUUUGGUGAC (ssRNA) [GGUG]
[4]
  Kd: 600 ± 20 nM

## GGGAGACCAAAACUGAAGAAGGUAA (ssRNA) [MBP 1-20]
[4]; label: 32P
  binding result: binds

## AGGUCUCAGUUCAUCGCGCGAGGUUAUAGU (ssRNA) [CGCGC]
[4]; label: 32P
  Kd: 290 ± 13 nM

## GAUUUAUCUUUAACUACUCAAGAUACUGAACAUGACA (structured_RNA) [Stem-loop]
[4]; label: 32P, hairpin
  Kd: 430 ± 28 nM

## GAUUUAUCUUUAACUACUCUAUCUUCUGAACAUGACA (ssRNA) [Stem-loop neg]
[4]; label: 32P
  Kd: 460 ± 39 nM

## AGGGTTAGTGTTAGTGTTAGGG (ssDNA) [Htelo DNA neg]
[4]; label: 32P
  Kd: 690 ± 48 nM

## AAAAAAAAAAAAAAAAAAAAAAAA (ssRNA) [polyA 24-mer]
[4]; label: 32P
  Kd: 846 nM

## AGUGAAGGCAGAGAGGGGUUAAGG (ssRNA) [3'prD]
[9]
  binding result: binds
